{
  "source": "patent US20100129869",
  "assay_in_all_cases": "cell_activity",
  "key": {"ZFN 9477 (engineered)": {"test_system": "ZFN 9477 (engineered)", "conditions": "pair with ZFN 9476; CHO-S GS-/- B3, Surveyor"}, "ZFN 9075 (engineered)": {"test_system": "ZFN 9075 (engineered)", "conditions": "pair with ZFN 9372"}, "ZFN 9476 (engineered)": {"test_system": "ZFN 9476 (engineered)", "conditions": "pair with ZFN 9477; CHO-S GS-/- B3, Surveyor"}, "ZFN 12172 (engineered)": {"test_system": "ZFN 12172 (engineered)", "conditions": "pair with ZFN 12176; CHO clone 1F1.6, Surveyor"}, "ZFN 8365 (engineered)": {"test_system": "ZFN 8365 (engineered)", "conditions": "pair with ZFN 8361; CHO cells, Surveyor"}, "ZFN 8361 (engineered)": {"test_system": "ZFN 8361 (engineered)", "conditions": "pair with ZFN 8365; CHO cells, Surveyor"}, "ZFN 9461 (engineered)": {"test_system": "ZFN 9461 (engineered)", "conditions": "pair with ZFN 7844; CHO-S GS-/- B3, Surveyor"}, "ZFN 9372 (engineered)": {"test_system": "ZFN 9372 (engineered)", "conditions": "pair with ZFN 9075"}, "ZFN 12176 (engineered)": {"test_system": "ZFN 12176 (engineered)", "conditions": "pair with ZFN 12172; CHO clone 1F1.6, Surveyor"}, "ZFN 7844 (engineered)": {"test_system": "ZFN 7844 (engineered)", "conditions": "pair with ZFN 9461; CHO-S GS-/- B3, Surveyor"}, "[1]": {"conditions": "wt FokI, CHO-K1, Surveyor, 24% with obligate heterodimer FokI, 25% in CHO-S"}, "[2]": {"conditions": "HEK293, CEL-I, also active in K562"}},
  "data": [
    {"substance": "AGTCCGGGGGGTGGTG (double strand) [CHO DHFR intron 1 ZFN 9477 half-site]", "values": [
      {"measurement": "activity (% modified alleles)", "setting": "ZFN 9477 (engineered)", "result": 18}
    ]},
    {"substance": "GAATGGTGCAGGCTGC (double strand) [CHO GS exon 6 ZFN 9075 half-site]", "values": [
      {"measurement": "activity (% modified chromosomes)", "setting": "ZFN 9075 (engineered); [1]", "result": 26}
    ]},
    {"substance": "CATGGGTAGCCGCTGA (double strand) [CHO DHFR intron 1 ZFN 9476 half-site]", "values": [
      {"measurement": "activity (% modified alleles)", "setting": "ZFN 9476 (engineered)", "result": 18}
    ]},
    {"substance": "AAGGAGGCAAAGACAAAG (double strand) [CHO FUT8 exon 10 ZFN 12172 half-site]", "values": [
      {"measurement": "activity (% modified alleles)", "setting": "ZFN 12172 (engineered)", "result": 7.5}
    ]},
    {"substance": "TATACATGGCTTGGACTTTCTCACCCTG (double strand) [CHO GS exon 2 ZFN 8365 half-site]", "values": [
      {"measurement": "activity (% modified chromosomes)", "setting": "ZFN 8365 (engineered)", "result": 7}
    ]},
    {"substance": "CTGGGTTGATGGTACTGGAGAAGGACTG (double strand) [CHO GS exon 2 ZFN 8361 half-site]", "values": [
      {"measurement": "activity (% modified chromosomes)", "setting": "ZFN 8361 (engineered)", "result": 7}
    ]},
    {"substance": "AGGGAAGGTCTCCGTT (double strand) [CHO DHFR exon 1 ZFN 9461 half-site]", "values": [
      {"measurement": "activity (% modified alleles)", "setting": "ZFN 9461 (engineered)", "result": 15}
    ]},
    {"substance": "GTTCCCAGGAATGGGCTTGGGG (double strand) [CHO GS exon 6 ZFN 9372 half-site]", "values": [
      {"measurement": "activity (% modified chromosomes)", "setting": "ZFN 9372 (engineered); [1]", "result": 26}
    ]},
    {"substance": "human GS exon 6 target", "values": [
      {"measurement": "activity", "setting": "ZFN 9075 (engineered); [2]", "result": 21, "unit": "% NHEJ"},
      {"measurement": "activity", "setting": "ZFN 9372 (engineered); [2]", "result": 21, "unit": "% NHEJ"}
    ]},
    {"substance": "AAGAAGGGTCATCAG (double strand) [CHO FUT8 exon 10 ZFN 12176 half-site]", "values": [
      {"measurement": "activity (% modified alleles)", "setting": "ZFN 12176 (engineered)", "result": 7.5}
    ]},
    {"substance": "CCAATGCTCAGGTACT (double strand) [CHO DHFR exon 1 ZFN 7844 half-site]", "values": [
      {"measurement": "activity (% modified alleles)", "setting": "ZFN 7844 (engineered)", "result": 15}
    ]}
  ]
}
